Experimental data as given in paper PMC11481497.

Molecular target: His-CaDpb3 (Dpb3 subunit of DNA polymerase epsilon of C. albicans, wild type) (C. albicans)
Assay: ITC; 20 µM wild-type or mutant CaDpb3 in the sample cell, 100 µM CaDpb4 injected from the syringe (25 injections of 1.5 µL); 25°C; 20 mM HEPES pH 7.4, 150 mM NaCl; one-site binding model

Kd: 55 µM | stoichiometry N: 1
Substance: His-CaDpb4 (Dpb4 subunit of DNA polymerase epsilon of C. albicans, wild type) (from UniProt A0A1D8PG40 1-261) (natural protein)
